The text below walks through data of PMC7353425.

This assay addresses 3 × LPG (truncated derivative of linker-protein G with three linker sequence repeats) (Streptococcus strain G148). The assay is described as follows: QCM-D; 3 × LPG (3.27–654 nM) adsorbed on SiO2-coated sensor, free sites blocked with 1 mg/mL BSA, trastuzumab injected at 1 µg/mL; 1 × PBS pH 7.4, 22 °C, flow 150 µL/min; mass from the Voigt viscoelastic model.

Substance “trastuzumab (humanized anti-HER2 monoclonal antibody)” yielded a mass deposited for bound trastuzumab of 1020 ng/cm^2.
